Data published in article PMC8657982, “Overlap and Specificity in the Substrate Spectra of Human Monoamine Transporters and Organic Cation Transporters 1, 2, and 3” (International Journal of Molecular Sciences, 2021).

How the values were obtained:
NET [1] = target: NET (Homo sapiens, UniProt P23975); assay: Uptake into HEK293 cells overexpressing NET (uptake ratio and concentration-dependent uptake); conditions: intrinsic clearance, quotient of vmax and Km
OCT2 = target: T1, OCT2 (Homo sapiens, UniProt O15244); assay: Uptake into HEK293 cells overexpressing OCT2 (uptake ratio and concentration-dependent uptake); conditions: intrinsic clearance, quotient of vmax and Km
T1 sequence (O15244 1-555): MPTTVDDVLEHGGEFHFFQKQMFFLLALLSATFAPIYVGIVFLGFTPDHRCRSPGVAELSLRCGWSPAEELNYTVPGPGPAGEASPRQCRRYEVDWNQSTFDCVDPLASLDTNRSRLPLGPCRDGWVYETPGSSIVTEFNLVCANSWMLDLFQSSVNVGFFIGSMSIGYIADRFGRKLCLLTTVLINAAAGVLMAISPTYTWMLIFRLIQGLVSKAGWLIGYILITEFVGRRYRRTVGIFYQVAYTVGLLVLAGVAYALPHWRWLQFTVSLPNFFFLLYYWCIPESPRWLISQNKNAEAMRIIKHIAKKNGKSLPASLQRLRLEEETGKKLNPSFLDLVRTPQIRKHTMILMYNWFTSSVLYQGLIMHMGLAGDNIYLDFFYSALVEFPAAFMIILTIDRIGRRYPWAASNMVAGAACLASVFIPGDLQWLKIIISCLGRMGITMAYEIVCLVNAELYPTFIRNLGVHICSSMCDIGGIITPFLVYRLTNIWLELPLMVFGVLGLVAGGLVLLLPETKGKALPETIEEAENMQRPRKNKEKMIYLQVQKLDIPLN

DAT [2] = target: DAT (Homo sapiens, UniProt Q01959); assay: Uptake into HEK293 cells overexpressing DAT (uptake ratio and concentration-dependent uptake); conditions: for Clint ± SEM: intrinsic clearance, quotient of vmax and Km
OCT1 = target: T2, OCT1 (Homo sapiens, UniProt O15245); assay: Uptake into HEK293 cells overexpressing OCT1 (uptake ratio and concentration-dependent uptake); conditions: intrinsic clearance, quotient of vmax and Km
T2 sequence (O15245 1-554): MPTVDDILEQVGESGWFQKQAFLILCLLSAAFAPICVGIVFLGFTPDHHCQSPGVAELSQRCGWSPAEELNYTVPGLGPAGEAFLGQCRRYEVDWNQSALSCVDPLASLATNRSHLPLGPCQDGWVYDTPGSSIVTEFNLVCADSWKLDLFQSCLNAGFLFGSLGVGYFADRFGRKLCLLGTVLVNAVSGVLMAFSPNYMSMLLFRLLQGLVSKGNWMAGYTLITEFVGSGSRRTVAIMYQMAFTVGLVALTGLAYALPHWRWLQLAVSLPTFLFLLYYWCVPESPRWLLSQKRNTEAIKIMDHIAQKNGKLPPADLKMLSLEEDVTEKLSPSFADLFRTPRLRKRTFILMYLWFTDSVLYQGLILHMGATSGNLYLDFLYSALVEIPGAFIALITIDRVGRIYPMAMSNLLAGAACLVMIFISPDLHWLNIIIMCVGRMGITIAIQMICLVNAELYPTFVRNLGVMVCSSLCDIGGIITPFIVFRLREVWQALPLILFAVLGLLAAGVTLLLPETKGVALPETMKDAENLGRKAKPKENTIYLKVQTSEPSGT

OCT3 = target: T3, OCT3 (Homo sapiens, UniProt O75751); assay: Uptake into HEK293 cells overexpressing OCT3 (uptake ratio and concentration-dependent uptake); conditions: intrinsic clearance, quotient of vmax and Km
T3 sequence (O75751 1-556): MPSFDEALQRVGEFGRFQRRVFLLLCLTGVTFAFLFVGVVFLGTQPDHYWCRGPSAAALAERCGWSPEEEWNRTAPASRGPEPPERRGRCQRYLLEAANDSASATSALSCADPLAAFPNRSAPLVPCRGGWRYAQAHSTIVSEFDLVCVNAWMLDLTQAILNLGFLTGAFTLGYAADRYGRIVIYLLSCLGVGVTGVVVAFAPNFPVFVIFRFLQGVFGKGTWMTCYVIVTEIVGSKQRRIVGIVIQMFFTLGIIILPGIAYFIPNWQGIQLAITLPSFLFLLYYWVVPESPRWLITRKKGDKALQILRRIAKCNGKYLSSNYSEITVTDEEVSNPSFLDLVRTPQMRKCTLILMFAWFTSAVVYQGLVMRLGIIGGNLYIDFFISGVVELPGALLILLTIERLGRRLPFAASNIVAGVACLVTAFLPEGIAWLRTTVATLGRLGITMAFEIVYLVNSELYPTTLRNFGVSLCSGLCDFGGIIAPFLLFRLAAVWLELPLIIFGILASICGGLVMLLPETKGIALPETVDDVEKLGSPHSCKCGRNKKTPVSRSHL

SERT = SERT (Homo sapiens, UniProt P31645); assay: Uptake into HEK293 cells overexpressing SERT (uptake ratio and concentration-dependent uptake);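 further: incubation at 37 °C, intracellular compound quantified by HPLC-MS/MS after cell lysis, uptake normalized to total protein measured by bicinchoninic acid assay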;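 on Uptake Ratio by Transporter SERT: ratio of uptake in SERT cells over empty-vector control cells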
Sequence of SERT (P31645 whole entry): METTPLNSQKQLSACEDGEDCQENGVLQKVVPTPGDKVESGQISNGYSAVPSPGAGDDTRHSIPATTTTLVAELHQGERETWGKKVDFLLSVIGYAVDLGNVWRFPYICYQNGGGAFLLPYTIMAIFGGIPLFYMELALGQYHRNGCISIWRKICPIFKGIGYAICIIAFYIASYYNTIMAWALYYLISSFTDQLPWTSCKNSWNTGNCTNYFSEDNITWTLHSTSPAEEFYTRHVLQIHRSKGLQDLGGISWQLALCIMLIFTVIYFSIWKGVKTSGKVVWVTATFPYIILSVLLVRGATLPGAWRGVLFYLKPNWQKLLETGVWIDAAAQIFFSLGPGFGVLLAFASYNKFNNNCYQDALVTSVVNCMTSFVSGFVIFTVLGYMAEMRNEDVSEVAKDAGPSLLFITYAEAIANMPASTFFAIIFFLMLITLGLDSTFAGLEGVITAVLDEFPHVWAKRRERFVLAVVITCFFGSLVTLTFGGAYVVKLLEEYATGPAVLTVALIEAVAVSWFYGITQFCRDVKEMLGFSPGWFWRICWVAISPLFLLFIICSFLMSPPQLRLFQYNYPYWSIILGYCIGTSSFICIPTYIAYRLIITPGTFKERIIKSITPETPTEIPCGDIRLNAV

NET [3] = tested on: NET; parameters: method as in PMID 31265842; conditions: cited from earlier work
DAT [4] = tested on: DAT; parameters: method as in PMID 31265842; conditions: cited from earlier work
CNCCc1c[nH]c2ccc(O)cc12 = assay: cells, lysate or membranes; conditions: pH 7.4;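 on Uptake Ratio by Transporter SERT: incubation at 37 °C, intracellular compound quantified by HPLC-MS/MS after cell lysis, uptake normalized to total protein measured by bicinchoninic acid assay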;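 on Uptake Ratio by Transporter SERT: ratio of uptake in SERT cells over empty-vector control cells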
[5] = tested on: CN[C@@H]1CCc2[nH]c3ccc(C(N)=O)cc3c2C1; assay: cells, lysate or membranes; conditions: other: SERT; concentration-dependent net uptake, Michaelis–Menten; pH 7.4;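 on Uptake Ratio by Transporter SERT: incubation at 37 °C, intracellular compound quantified by HPLC-MS/MS after cell lysis, uptake normalized to total protein measured by bicinchoninic acid assay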;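 on Uptake Ratio by Transporter SERT: ratio of uptake in SERT cells over empty-vector control cells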
N=C(N)NCc1cccc(I)c1 = assay: cells, lysate or membranes; conditions: other: SERT; concentration-dependent net uptake, Michaelis–Menten; pH 7.4;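 on Uptake Ratio by Transporter SERT: incubation at 37 °C, intracellular compound quantified by HPLC-MS/MS after cell lysis, uptake normalized to total protein measured by bicinchoninic acid assay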;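 on Uptake Ratio by Transporter SERT: ratio of uptake in SERT cells over empty-vector control cells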
NCCc1c[nH]c2ccccc12 = assay: cells, lysate or membranes; conditions: other: SERT; concentration-dependent net uptake, Michaelis–Menten; pH 7.4
[6] = substrate: CNCCc1c[nH]c2ccc(O)cc12; assay: cells, lysate or membranes; conditions: other: DAT; concentration-dependent net uptake, Michaelis–Menten; pH 7.4
[7] = substrate: NCCc1ccccc1; assay: cells, lysate or membranes; conditions: other: DAT; concentration-dependent net uptake, Michaelis–Menten; pH 7.4
[8] = substrate: N=C(N)NCc1cccc(I)c1; assay: cells, lysate or membranes; conditions: other: DAT; concentration-dependent net uptake, Michaelis–Menten; pH 7.4
[9] = substrate: NCCc1c[nH]c2ccc(O)cc12; assay: cells, lysate or membranes; conditions: other: DAT; concentration-dependent net uptake, Michaelis–Menten; pH 7.4
[10] = substrate: NCCc1ccc(O)c(O)c1; assay: cells, lysate or membranes; conditions: other: DAT; concentration-dependent net uptake, Michaelis–Menten; pH 7.4

Sequence of NET (Homo sapiens, UniProt P23975) (P23975 whole entry): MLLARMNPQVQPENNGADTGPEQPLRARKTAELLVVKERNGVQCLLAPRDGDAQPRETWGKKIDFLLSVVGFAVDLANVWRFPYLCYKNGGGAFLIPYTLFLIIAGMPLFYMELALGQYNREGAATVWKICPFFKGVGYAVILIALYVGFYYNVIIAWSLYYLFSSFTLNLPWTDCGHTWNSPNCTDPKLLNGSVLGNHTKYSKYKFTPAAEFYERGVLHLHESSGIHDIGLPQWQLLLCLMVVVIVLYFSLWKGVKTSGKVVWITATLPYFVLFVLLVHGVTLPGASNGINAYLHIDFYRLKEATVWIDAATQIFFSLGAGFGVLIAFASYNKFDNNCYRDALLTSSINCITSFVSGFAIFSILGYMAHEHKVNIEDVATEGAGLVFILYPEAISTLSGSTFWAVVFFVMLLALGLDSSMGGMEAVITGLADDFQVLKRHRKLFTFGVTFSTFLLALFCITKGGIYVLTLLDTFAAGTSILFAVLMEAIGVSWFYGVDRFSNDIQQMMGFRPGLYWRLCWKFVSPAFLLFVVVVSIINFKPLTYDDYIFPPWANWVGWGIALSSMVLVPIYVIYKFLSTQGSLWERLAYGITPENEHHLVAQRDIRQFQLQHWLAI

In the case of NC(N)=NCc1cccc(I)c1 [mIBG, meta-iodobenzylguanidine, reference compound], the “Clint ± SEM” value (NET [1]) is reported as 284 mL × g Protein^−1 × min^−1, the “Clint ± SEM” value (NET [1]; listed as meta-iodobenzylguanidine) is reported as 284.6 ± 84.2 mL × g Protein^−1 × min^−1 and the “Clint ± SEM” value (OCT2) is reported as 152 ± 34.1 mL × g Protein^−1 × min^−1. For the same molecule, the “Vmax ± SEM” value (DAT [2]; concentration-dependent net uptake, Michaelis–Menten) was 2800 pmol × mg Protein^−1 × min^−1, the “Clint ± SEM” value (DAT [2]) was 229 ± 33.8 mL × g Protein^−1 × min^−1 and the “Clint ± SEM” value (OCT1) was 138 ± 38.5 mL × g Protein^−1 × min^−1. For the same molecule, the “Clint ± SEM” value (OCT3) was 161 ± 35.7 mL × g Protein^−1 × min^−1 and the “Clint ± SEM” value (SERT; SERT, intrinsic clearance, quotient of vmax and Km) was 38.2 ± 25.9 mL × g Protein^−1 × min^−1.

For NCCc1ccccc1 [Phenylethylamine], the “Clint ± SEM” value (NET [1]) is given as 3.4 mL × g Protein^−1 × min^−1, the “Clint ± SEM” value (DAT [2]) is given as 2.1 mL × g Protein^−1 × min^−1 and the “NET inhibition IC50” value (NET [3]) is given as “low micromolar range”. For the same molecule, the “Uptake Ratio by Transporter SERT” value (SERT) was 1.71 and the “DAT inhibition IC50” value (DAT [4]) was “low micromolar range”.

With SERT (Homo sapiens) the Km (CNCCc1c[nH]c2ccc(O)cc12) was 4.065 ± 1.829 µM, the Vmax (CNCCc1c[nH]c2ccc(O)cc12) was 1373.0 pmol × mg Protein^−1 × min^−1 and the Km [5] was 26.51 µM. The Vmax [5] was 1020 pmol × mg Protein^−1 × min^−1, the Km (N=C(N)NCc1cccc(I)c1) was 11.2 ± 6.2 µM and the Vmax (N=C(N)NCc1cccc(I)c1) was 0.000429 µmol/min/mg. For the same molecule, the Vmax/Km (N=C(N)NCc1cccc(I)c1) was 38.2 µL/min/mg, the Km (NCCc1c[nH]c2ccccc12) was 29.0 µM and the Vmax (NCCc1c[nH]c2ccccc12) was 634.6 pmol × mg Protein^−1 × min^−1.

B1: DAT (Homo sapiens) (protein)
chain: MSKSKCSVGLMSSVVAPAKEPNAVGPKEVELILVKEQNGVQLTSSTLTNPRQSPVEAQDRETWGKKIDFLLSVIGFAVDLANVWRFPYLCYKNGGGAFLVPYLLFMVIAGMPLFYMELALGQFNREGAAGVWKICPILKGVGFTVILISLYVGFFYNVIIAWALHYLFSSFTTELPWIHCNNSWNSPNCSDAHPGDSSGDSSGLNDTFGTTPAAEYFERGVLHLHQSHGIDDLGPPRWQLTACLVLVIVLLYFSLWKGVKTSGKVVWITATMPYVVLTALLLRGVTLPGAIDGIRAYLSVDFYRLCEASVWIDAATQVCFSLGVGFGVLIAFSSYNKFTNNCYRDAIVTTSINSLTSFSSGFVVFSFLGYMAQKHSVPIGDVAKDGPGLIFIIYPEAIATLPLSSAWAVVFFIMLLTLGIDSAMGGMESVITGLIDEFQLLHRHRELFTLFIVLATFLLSLFCVTNGGIYVFTLLDHFAAGTSILFGVLIEAIGVAWFYGVGQFSDDIQQMTGQRPSLYWRLCWKLVSPCFLLFVVVVSIVTFRPPHYGAYIFPDWANALGWVIATSSMAMVPIYAAYKFCSLPGSFREKLAYAIAPEKDRELVDRGEVRQFTLRHWLKV
For B1, the Km [6] was 43.82 ± 14.39 µM, the Vmax [6] was 3560 pmol × mg Protein^−1 × min^−1 and the Km [7] was 156 µM. The Vmax [7] was 325 pmol × mg Protein^−1 × min^−1, the Km [8] was 12.2 ± 1.46 µM and the Vmax [8] was 0.0028 µmol/min/mg. For the same molecule, the Vmax/Km [8] was 229 µL/min/mg, the Km [9] was 50.50 µM and the Vmax [9] was 3908 pmol × mg Protein^−1 × min^−1. For the same molecule, the Km [10] was 25.1 µM and the Vmax [10] was 1977 pmol × mg Protein^−1 × min^−1.
